Data on one molecule can be found in PMC3498133 (2012).

Values joined by “and” are separate entries in the source; they are usually repeats but may differ in a detail not shown here. Equal values may be shown once.

The target of the assay is SpcU (Pseudomonas aeruginosa, UniProt O66100 1-137). Put plainly: ITC. (ITC needs no label: the signal is the heat of the interaction.)

B1: ExoU (natural protein)
chain: MHIQSLGATASSLNQEPVETPSQAAHKSASLRQEPSGQGLGVALKSTPGILSGKLPESVSDVRFSSPQGQGESRTLTDSAGPRQITLRQFENGVTELQLSRPPLTSLVLSGGGAKGAAYPGAMLALEEKGMLDGIRSMSGSSAGGITAALLASGMSPAAFKTLSDKMDLISLLDSSNKKLKLFQHISSEIGASLKKGLGNKIGGFSELLLNVLPRIDSRAEPLERLLRDETRKAVLGQIATHPEVARQPTVAAIASRLQSGSGVTFGDLDRLSAYIPQIKTLNITGTAMFEGRPQLVVFNASHTPDLEVAQAAHISGSFPGVFQKVSLSDQPYQAGVEWTEFQDGGVMINVPVPEMIDKNFDSGPLRRNDNLILEFEGEAGEVAPDRGTRGGALKGWVVGVPALQAREMLQLEGLEELREQTVVVPLKSERGDFSGMLGGTLNFTMPDEIKAHLQERLQERVGEHLEKRLQASERHTFASLDEALLALDDSMLTSVAQQNPEITDGAVAFRQKARDAFTELTVAIVSANGLAGRLKLDEAMRSALQRLDALADTPERLAWLAAELNHADNVDHQQLLDAMRGQTVQSPVLAAALAEAQRRKVAVIAENIRKEVIFPSLYRPGQPDSNVALLRRAEEQLRHATSPAEINQALNDIVDNYSARGFLRFGKPLSSTTVEMAKAWRNKEFT
For B1, the Ka was 3.08e+07 M⁻¹ and 1.77e+07 M⁻¹.
